Values quoted from earlier work as cited in publication PMC3824636.

Experiments:
Cys149 [1] = molecular target: Cys149 (UniProt position 156, VSNASCTTNCL); test: chemical modification or UV-vis (listed collectively, not mapped to individual values); conditions: not stated (apo or holo not specified)
Cys302 = test: chemical modification (described only as 'titration of Cys-302')
Cys149 [2] = molecular target: Cys149 (UniProt position 150, VSNASCTTNCL); test: chemical modification or UV-vis (listed collectively, not mapped to individual values); conditions: not stated (apo or holo not specified)
Cys149 [3] = molecular target: Cys149 (UniProt position 152, ISNASCTTNCL); test: as above; conditions: not stated (apo or holo not specified)

For “Cytoplasmic glyceraldehyde-3-phosphate dehydrogenase GAPC1 (Arabidopsis thaliana)”, the pKa (Cys149 [1]) is listed as 5.7.
For “Non-phosphorylating NADP-dependent glyceraldehyde-3-phosphate dehydrogenase (GAPN) (Streptococcus mutans)”, the pKa (Cys302; NADP+-bound (holo-enzyme)) is given as 6.1 and the pKa (Cys302; apo-enzyme (no cofactor)) is given as 8.5.
In the case of “Glyceraldehyde-3-phosphate dehydrogenase (GAPDH), pig liver as stated (Sus scrofa)”, the pKa (Cys149 [2]) is given as 5.5.
For “Glyceraldehyde-3-phosphate dehydrogenase (GAPDH) (Escherichia coli)”, the pKa (Cys149 [2]) is listed as about 5.7.
In the case of “Glyceraldehyde-3-phosphate dehydrogenase (GAPDH) (Geobacillus stearothermophilus (Bacillus stearothermophilus))”, the pKa (Cys149 [3]) is listed as 5.9.
